T1: Methanocaldococcus jannaschii RecJ2 (MJ0831) (Methanocaldococcus jannaschii (strain …, UniProt Q58241))
T1 chain: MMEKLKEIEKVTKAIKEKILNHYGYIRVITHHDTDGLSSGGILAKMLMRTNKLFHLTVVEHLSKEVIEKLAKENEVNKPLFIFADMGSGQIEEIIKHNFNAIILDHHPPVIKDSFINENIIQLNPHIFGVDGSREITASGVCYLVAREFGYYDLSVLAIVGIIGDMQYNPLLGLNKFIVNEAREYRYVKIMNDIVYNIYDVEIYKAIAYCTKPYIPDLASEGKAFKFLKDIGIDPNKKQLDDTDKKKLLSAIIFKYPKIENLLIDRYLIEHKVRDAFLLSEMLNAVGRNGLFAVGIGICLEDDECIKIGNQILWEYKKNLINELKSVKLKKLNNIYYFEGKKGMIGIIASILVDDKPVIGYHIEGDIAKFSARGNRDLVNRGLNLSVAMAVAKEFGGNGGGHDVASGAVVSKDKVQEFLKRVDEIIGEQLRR


Key:
[1] = target: T1, Methanocaldococcus jannaschii RecJ2 …; test: Ni-NTA pulldown (co-purification)
[2] = target: T1, Methanocaldococcus jannaschii RecJ2 …; test: gel filtration (Superdex 200); MST also negative

binding result [1]	binding result [2]	Binder
no binding	–	Methanocaldococcus jannaschii GINS (MJ0248), 6×His tag and sumo domain removed (protein) MRVFIIIIYFRCFSKDHKPYFVITMYESLKNYFFEEIKNDKLLKLPDDFYDDIREYIKNIKDDIELERVKYYFKELRKLRIYKALYLDNERENLLPEELNIIHAIENIVVELKIEETPEFKKPTEIDTPKPIYTINDIDVVKVDKNFPPFTDGTFIYDLNKNDVLSLDRKISHILEKHRIISRIGESYENPEES
–	no binding	Methanocaldococcus jannaschii GINS (MJ0248), tag state not stated (protein) MRVFIIIIYFRCFSKDHKPYFVITMYESLKNYFFEEIKNDKLLKLPDDFYDDIREYIKNIKDDIELERVKYYFKELRKLRIYKALYLDNERENLLPEELNIIHAIENIVVELKIEETPEFKKPTEIDTPKPIYTINDIDVVKVDKNFPPFTDGTFIYDLNKNDVLSLDRKISHILEKHRIISRIGESYENPEES

Reference: publication PMC5615345 (2017)
